Reference: the DeepSol protein solubility set

Assay: soluble on expression in E. coli; label from the status in PepcDB or PDB records

Sequence	soluble on expression in E. coli
MSLVSSLSFNFAPDFRPLAARMRPRTIAEYIGQAHLLGEGQPLRQALEAGRAHSMMLWGPPGTGKTTLAELIAHYSNAHVERISAVTSGVKDIRGAIEQAQAIAQSRGQRTLLFVDEVHRFNKSQQDAFLPFIEDGTVIFIGATTENPSFEINNALLSRARVYLIKRLSQDEIVHIITQALADTERGLGQRALNMPTDVLNKLAQLCDGDARKALNLLELMSDMVADGGTFTTEMLVQVAGHQVAGFDKNGDQFYDLISAVHKSIRGSAPDAALYWFCRILEGGGDPLYVARRLLAIASEDVGNADPAAMTIALNAWECFHRVGPAEGERAIAQAIVYLASAPKSNAVYTAFKAARALARETGQEAVPYHLRNAPTKLMAEMGFGAEYRYAHDEPNAYASGENYFPESLKESQFYFPTERGFEKRIKDKLVQLAQLDQASGRKREGHHHHHH	soluble
MSLVWTKTTYMGINCWKSVSDMWNYQEILSELQPSLVIEFGTRYGGSAVYFANIMRQIGQPFKVLTVDNSHKALDPRARREPDVLFVESSSTDPAIAEQIQRLKNEYPGKIFAILDSDHSMNHVLAEMKLLRPLLSAGDYLVVEDSNINGHPVLPGFGPGPYEAIEAYEDEFPNEGHHHHHH	not soluble
MSLWKSMTYYQKMIQEPSREKLLPDPLKYPYVQPPYTLVLEMKDVLVHPDWTYQTGWRFKKRPGVDKFLETLAANYEIVVFTADQGMTVFPILDALDPRGYIMYRLVRDATHFVDGHHVKNLDNLNRDLSKVIVVDWDPNSTKLHPENTLNIPRWTGNDDDAGLFDLMAMLVTIATSEVEDVRDVMTYYKSFENPLVKFRENQRLLAEQMAEREHEEKQRNLPAVQRWRPSFLEGHHHHHH	soluble
MSLWLAGTWYTGQRIETESQTRLNEINAQLAAAFPEFPVRINQLKLERGFFTSQARYGVEVGKSEETGKPEATVEVDARIEHGPFAPGALARGKLMPQLAFVHAEVANTEDLKKVFEVTKGATPLWSDTVVAYNGDSTSTGGLAAIDYSGDEGKFAFSGATFDGSYQRATQAAIGSLKADSLALDASADDDGGPLLFTLDGLAVTVDSRMGKSGLSIGDSALSVKRLEVKQPEGDAHLTVADMAYAARIGEQDEFINGEISYGAGEITYNGIALGNGRAVFKAERLNAAAIKVVADEYNKAIKLQAEGKDPVPDNAEMRKLLMAQADTLLAGKPVLTLDPVQWKTAQGESVFNARVALSKPASSDLMAVDYFSQAIESIDASATLSKPMIKALMVGYLQSQEGMDAQQAAAAADQQVSSLAGMAEMMNLGKNEGDNIVSKFHYAAGTVDLNGRKMPADQLLGSILGGEGHHHHHH	not soluble
MSLYKQTSIFDAKFDKNRPLADRMRPRTLDEFVGQEHILGKGKALRELIEKDSITSMILWGPPGVGKTTLAMIIANMTNSKFVNFSAVLSGIKEIKEIMAQAERDAMYGQRTVVFIDEIHRFNKAQQDAFLPHVEKGNIILIGATTENPSFEVNSALLSRSKVFMMKPLDVKDIMIILKRALKDEERGLGLYNVEIDEEKLEKIALFSNGDARVALNTLEMAVMAANVVNGKRVVTDEILSDVMQKKALLYDKAGEEHYNLISAFHKSLRNSDWDAALYWMARMLEAGEDPLYIARRMIRFASEDVGLADPQALSVAIAAYEASHYIGMPECSVNLAQAAVYLALAPKSNALYVAYNRVKKDAEETFAEPVPMHLRNAPTKLMKELGYGEGYKYAHDFEEKVTDMECLPENLKGRRYYIPTDSGFEKKLKERMEEILKLKGEGHHHHHH	soluble
MSLYSSENDYIILEDKTATGKKRDWKGKKRRTNLMAEHYEALQSKTGIPYYGKKAEKLCSCAECLSFKRDPETGKLKLYQAQFCKVRLCPMCAWRRSLKIAYHNKLIVEEANRQYGCGWIFLTLTVRNVEGDGLKPMIADMMKGWNRLFGYKRVKVATLGYFRALEITKNHEEDTYHPHFHVLLPVKKSYFTHNYIKQSEWTSLWKRAMKLDYTPIVDIRRVKGRAKIDAEQIESDVREAMMEQKAVLEISKYPVKDTDVVRGNKVTEDNLNTVFYLDDALSARRLIGYGGILKEIHKELNLGDAEDGDLVKIEEEDDEVANEAFEVMAYWHPGIKNYIIREGHHHHHH	not soluble
MSLYSTPLKKRIDYDRETFTASASLGGNRLRNRPRDDQNNGKPNLSSRSFLSERKTRKDVLNKYGEAGNTIESELRDVTTHVKISGLTSSEPLQLASEFVQDLSFRDRNTPILDNPDYYSKGLDYNFSDEVGGLGAFTPFQRQQVTNIPDEVLSQVSNTEIKSDMGIFLELNYCWITSDNKLILWNINNSSEYHCIDEIEHTILKVKLVKPSPNTFVSSVENLLIVATLFDIYILTISFNDRTHELNIFNTGLKVNVTGFNVSNIISYERTGQIFFTGATDGVNVWELQYNCSENLFNSKSNKICLTKSNLANLLPTKLIPSIPGGKLIQKVLEGDAGTEEETISQLEVDQSRGVLHTLSTKSIVRSYLITSNGLVGPVLIDAAHIRRGMNALGVKNSPLLSNRAFKIAKIVSISMCENNDLFLAVITTTGVRLYFKGSISRRSIGSLKLDSVKFPPTSISSSLEQNKSFIIGHHPLNTHDTGPLSTQKASSTYINTTCASTIISPGIYFTCVRKRANSGELSKGITNKALLENKEEHKLYVSAPDYGILKNYGKEGHHHHHH	soluble
MSLYVKMMEMGRMIDNCLYCGSATLLSIIHLANGKNAVTCGKCGLTRTIPVPSAEYSEVAEYFENYLLKEKLFRAFSRKLLDFVLSVVQNGRLLEVGCSVGFFLEEAKRAGFSVNGVELNEKAATLSKGKDFDVRNCMLREAGFPSHEFDVVVMSHVLEHIQDLREFLADIKVLLRPGGKVIVSQPTPDGIVPKMQKKKWYGWVPNEHVWHFTPKTLSLVFAENGFDVVKVERNSMYYSLWPSSLRGILVALVARTAAVLGLGDQFYLAATVSEKDSEGHHHHHH	not soluble
MSMNRQEISDLCVKSLEGRMVGTEAQNIENGNAFYRYFFTNFPDLRVYFKGAEKYTADDVKKSERFDKQGQRILLACHLLANVYTNEEVFKGYVRETINRHRIYKMDPALWMAFFTVFTGYLESVGSLNDQQKAAWMALGKEFNAESQTHLKNSNLPHV	soluble
MSNDRPLIFVDLDDTLFQTARKTPADIEKHVATLDISGNANGYMTNVQKSFAHWLLAHADVVPVTARSVEAYSRVKLPFTAGAICSHGGVMLDVMGRLDPDWNEQMKQTLASYQSRLHELSAATLAIGQEMGFSLRGWVVEEAQLFHYVVTKHNESDDSILTKVLAEMQARGLLDGMHIHGNGNNLAFLPEGLAKRYAVQEWLRRDLAINGERPVLGFGDSITDLGFMDECHWWATPARSQLAKMFVGAAHE	not soluble
MSNEGSREESREPEAREGKSDEIFEVEKILAHKVTDNLLVLQVRWLGYGADEDTWEPEEDLQECASEVVAEYYKKLKVTDKTELIELLQKQIKKNKSQKSKKRSKTVSDHESNHDSDGSYGTPKTSKKSKKSAKNETPVSSKVPKVPTKAALKSYEATVSGPVAPNNAKKAAMEVRDTRRNWLDEESSDDEAETTAPLSDVEKIASKVKVVKAVEEKAEEPVKRPSTPPKPREVVIKKDPSESPVASASSVIPTSKRKSINAETSNGRQRTLAPPVIVKDETTWTVDGIARHTDVDNTKTKLILMTNSATGERKVVEGREAFELDGWALAKYLLDRCEF	soluble
